Experiments:
Test in all cases: EMSA
[1] = biological target: T1, His6-MmfR (Streptomyces coelicolor A3(2)) (UniProt Q7APH7)
T1 sequence: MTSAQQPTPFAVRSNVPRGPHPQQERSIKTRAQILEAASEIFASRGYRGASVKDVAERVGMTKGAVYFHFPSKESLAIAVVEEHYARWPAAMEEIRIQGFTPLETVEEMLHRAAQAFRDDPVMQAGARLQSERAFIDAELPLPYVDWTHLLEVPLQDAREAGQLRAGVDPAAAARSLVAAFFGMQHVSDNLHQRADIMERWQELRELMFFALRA

[2] = biological target: T2, MmfR Q130E Q130E (Streptomyces coelicolor A3(2)) (UniProt Q7APH7)
T2 sequence: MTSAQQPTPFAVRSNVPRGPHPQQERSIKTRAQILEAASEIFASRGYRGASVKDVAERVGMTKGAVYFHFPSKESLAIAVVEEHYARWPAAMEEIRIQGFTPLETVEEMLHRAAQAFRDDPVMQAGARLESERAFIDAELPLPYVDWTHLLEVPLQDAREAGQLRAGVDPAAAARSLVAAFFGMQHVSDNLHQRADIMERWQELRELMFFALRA

[3] = biological target: T3, MmfR Y85F Y85F (Streptomyces coelicolor A3(2)) (UniProt Q7APH7)
T3 sequence: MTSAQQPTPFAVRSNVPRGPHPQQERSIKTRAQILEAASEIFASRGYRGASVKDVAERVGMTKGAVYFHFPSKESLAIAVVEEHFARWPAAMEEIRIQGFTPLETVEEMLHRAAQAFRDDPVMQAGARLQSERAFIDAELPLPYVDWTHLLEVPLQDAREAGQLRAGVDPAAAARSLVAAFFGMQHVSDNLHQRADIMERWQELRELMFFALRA

[4] = biological target: T4, MmfR Y144F Y144F (Streptomyces coelicolor A3(2)) (UniProt Q7APH7)
T4 sequence: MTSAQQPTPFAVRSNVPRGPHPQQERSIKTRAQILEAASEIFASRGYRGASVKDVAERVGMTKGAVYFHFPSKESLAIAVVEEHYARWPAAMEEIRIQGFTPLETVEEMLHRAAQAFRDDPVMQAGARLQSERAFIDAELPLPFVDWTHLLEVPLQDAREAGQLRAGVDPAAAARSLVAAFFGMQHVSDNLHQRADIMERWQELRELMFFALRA

His6-MmfR = biological target: T5, His6-MmfR (Streptomyces coelicolor A3(2), UniProt Q7APH7 1-214)
T5 sequence: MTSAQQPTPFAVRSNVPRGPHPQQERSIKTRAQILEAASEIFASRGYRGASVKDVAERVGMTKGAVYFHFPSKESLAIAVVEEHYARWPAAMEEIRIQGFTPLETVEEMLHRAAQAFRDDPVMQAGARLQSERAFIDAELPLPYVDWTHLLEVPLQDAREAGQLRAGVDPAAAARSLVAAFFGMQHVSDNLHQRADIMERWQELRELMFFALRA

GGACCACCGGCTGGCTTGCCGCGCTGCAAGACAGCCGGGATCGGTAAGCTGACCGAGAGAAATATACCTGCGGGAAGGTATTATGCAATGGGTTTCCGTG (double strand) [mmfL-mmfR internal fragment, 100 bp]
binding [1]: binds

GGCGCCTCACAGTGTCAAACCTTCCCGAAGGTTTTTTATGACTCGTAACGGAGAGTTAAACCGGGGCTTACGAGAGCGGCGGGGCCTCGGTGTTTGGA (double strand) [mmyB-mmyY internal fragment, 98 bp]
binding [1]: binds

GGCGCCTCACAGTGTCAAACCTTCCCGAAGGTTTTTTATGACTCGTAACGGAGAGTTAAACCGGGGCTTACGAGAGCGGCGGGGCCTCGGTGTTTGGACCGCAACTCGGCGGGGCCCTGGTGCTGAGAACACCACGTCTGAGGCCCCTAGCAGAAGTTCGCTCTGGCAGCCTTCGCACGACCCTGCCGATACTCGCCAGCGATCCGAACCACTCGCCGAAGGAGTTCACC (double strand) [mmyB-mmyY intergenic region, 230 bp]
binding [1]: binds

GGCTGCCTTCCTTCGTGTGTGCGGGCCCTGCGGGCGCCATGCTGGTGCGACCCGGGTCGGCACGGAAACCCATTGCATAATACCTTCCCGCAGGTATATTTCTCTCGGTCAGCTTACCGATCCCGGCTGTCTTGCAGCGCGGCAAGCCAGCCGGTGGTCCCGTACGAGGACACACCGGGAGATGTAGCGCCCCT (double strand) [mmfL-mmfR intergenic region, 194 bp]
binding [2]: binds | binding [3]: binds | binding [1]: binds | binding [4]: binds

B1: MARE1 hairpin (structured_DNA)
DNA: GCAATATACCTGCGGGAAGGTATTATGCGAGGCATAATACCTTCCCGCAGGTATATTGC
binding result (His6-MmfR): binds

B2: MARE2 hairpin (structured_DNA)
DNA: GCAAAAAACCTTCGGGAAGGTTTGACGCGAGGCGTCAAACCTTCCCGAAGGTTTTTTGC
binding result (His6-MmfR): binds
